Results: patent US20240245805A1 (Orna Therapeutics, Inc., priority 2020, published 2024)

B1: Human enterovirus C105 (nucleic acid, listed as Enterovirus sp.)
DNA: CCCCTAGGATCCACTGGATGTCAGTACACTGGTATCGTGGTACCTTTGTACGCCTGTTTTATACCCCCTTCCCCGCAACTTTAGAAGCATCAAAAGCACCGCTCAATAGTCACCACACCCCCAGTGTGGTTTCGAGCAAGCACTTCTGTTTTCCCGGTTGCGTCCCATATGCTGTGCAAACGGCAAAAAGGGACAATATCGTTACCCGCTTGTATACTACGGGAAACCTAGTACCACCATTGATTGTGTTGAGAGTTGCGCTCATCACCTTTCCCCGGTGTAGCTCAGGCCGATGAGGCTCAGAATCCCCCACAGGTGACTGTGTCTGAGCCTGCGTTGGCGGCCTGCCCTCGCCTTATGGCGTGGGACGCTTGATACATGACATGGTGCGAAGAGTCTACTGTGCTATGCAAGAGTCCTCCGGCCCCTGAATGTGGCTAATCCTAACCACTGATCCCACGCACGCAAACCAGTGTGTAGTGGGTCGTAACGCGCAAGTCGGTGGCGGAACCAACTACTTTGGGTGACCGTGTTTCCTTTATTACTTATTGAATGTTTATGGTGACAATTGTTTGATTCAGTTGTTGCCATTCTCTACATTCATTTACCCAGCATCAAACCAATTGAACTGTTACA
B2: Sclerotinia sclerotiorum dsRNA mycovirus-L (nucleic acid)
DNA: TTGAATTAATCTTTTACGTTTACGCGCATAAAATCAGGACACATCTCTTGTATACTTTAGTATATCAATGATGTTTTTGTTTTATGCGATTAATCGTAAGAGAACTTCTTTCCATCCGCCTGTATGGGCGGGATAATAAGTTCACCGCCTTGGTCGAGGCGCAAACTTGTATGTGCAAAGGTGAGCTATATGCTCGAAATAGTCGTAACTAACACACAGCCACTACCTGTAGAGCTCTATTGATCCGGAATCCTTTAGTGGGAATGCAGAGCTCACACCGGACCTGCGGGTATCTTCGGCGTTAGGGACTTCTGTTTCAGCCTTGAATCATTTACCTTTATACCTTCTCTGAGGCGCCTGGGCCGGGCGCGATATTAAGTACAAGTCAAGGACATCGCGGGTAGTGGTCTAATCAGCCGCTAGTCCTGCTGGAGAGTTCCAACTTAGTTGGGTGTGGTGCATACTAGCTGGATAGAGTAGGTATGTATTGCTAACGTATGCCGGAGGCTATCCGTCCTCGGTAGAACGTGCCGAGGAGTAGTCTCTGCAGACCCCCGAACGCGTGGGGTCTTTACTTAAATGTAGGCGGAGGGAGCGCTCGTAGGTGGAACGACTGCCTCCCAGTCGAATGCAAGATTTTGCACGCGGACCAGTCTGCCCGGCAATTCCCGGGTG
modifications: source: /note="Description of Unknown: Sclerotinia sclerotiorum dsRNA mycovirus-L sequence"
B3: Avian orthoreovirus segment S1 (nucleic acid, listed as Avian orthoreovirus)
DNA: GCTTTTTCAATCCCTTGTGTCGATGTTCCCGTATGTCATCTGGTTCATGTAACGGTGCAACTTCTATTTTTGGTAACGTTCACTGTCAGGCAGCGCAAAACTCGGCGGGTGGTGATCTTCAAGCGACTTCCTCTCTTGTTGCTTATTGGCCCTACTTGGCTGCGGGCGGTGGTCTGCTCGTTGTTATTATTATAATTGTTGGCGCTGTTTGTTGTTGCAAGGCTAAGGTTAAAGCGGACGCAGCCCGAAACGTTTTCTACCGAGAGCTGTTCGCACTTAATTCGGGTAAAAGTGATGCAGGACCTCCGATTTACCAGGTTTAGTGTACGACGATTTGAGTTTTCACCTTTCGTCTTAGAGGAGTGCACTACTCCATCTTTCACGACTATAACTAATACCGATCCGGCTCTCTACTTTAACATTGAGTTTCCGTCAAGTCATCGTCTCTCCCCCTTCATTCCAGAACTGTTGTCTCAGCCTTGTACCGTTCACGTTTCATTGATTCGGAGATTCGCTCTCTGTGCAACCTTATCTAGTATTTGTGAATACGACTGTGCGCTACTGCCATCCATCAACGCTATTACGACGATCCCTACACCAGGTGCGTCATCATCTCTGATTGTTCATTGGG
B4: Wobbly possum disease virus (nucleic acid)
DNA: CGGCTGTGAGTGCTTAGCATATGCTAGAGTACTACAGCCGGGTGTTGGAGTCATATGCACTGGTTGCCTGTATAATAGTCGGGATCTGTCTGACCTACATTATCTTTGGGAGTTGCTTATCACGACAATTCTCGAAGTGTCTGTCGACAGCTTACCCCCGATTCGACAAGGCCCCTTGTCCACCGCAGACCTATCGATTTTCAACGAGAACACTATCAGAGGTTTAAATTTAAAACTCACCAACA
modifications: source: /note="Description of Unknown: Wobbly possum disease virus sequence"
B5: Apodemus agrarius picornavirus strain Longquan-Aa118 (nucleic acid)
DNA: TTACTCAGCGTAACTACTCCGGGTTACGTGATGAAGAAGAGGCTACGGAGATTCTCGGGCTACGGCCCTGGAGCCACTCCGGCTCCTAAAGATTTAGAAGTTTGAGCACACCCGCCCACTAGGGCCCCCCATCCAGGGGGGCAACGGGCAAGCACTTCTGTTTCCCCGGTATGATCTGATAGGCTGTAACCACGGCTGAAACAGAGATTATCGTTATCCGCTTCACTACTTCGAGAAGCCTAGTAATGATGGGTGAAATTGAATCCGTTGATCCGGTGTCTCCCCCACACCAGAAACTCATGATGAGGGTTGCCATCCCGGCTACGGCGACGTAGCGGGCATCCCTGCGCTGGCATGAGGCCTCTTAGGAGGACGGATGATATGGATCTTGTCGTGAAGAGCCTATTGAGCTAGTGTCGACTCCTCCGCCCCCGTGAATGCGGCTAATCCTAACCCCGGAGCAGGTGGGTCCAATCCAGGGCCTGGCCTGTCGTAATGCGTAAGTCTGGGACGGAACCGACTACTTTCGGGAAGGCGTGTTTCCATTTGTTCATTATTTGTGTGTTTATGGTGACAACTCTGGGTAAACGTTCTATTGCGTTTATTGAGAGATTCCCAACAATTGAACAAACGAGAACTACCTGTTTTATTAAATTTACACAGAGAAGAATTACA
modifications: source: /note="Description of Unknown: Apodemus agrarius picornavirus strain Longquan-Aa118 sequence"
B6: Yak enterovirus (nucleic acid, listed as Enterovirus sp.)
DNA: CTCCGGCACAGCCGCACCAGTGCACTGGTACGCTAGTACCTTTTCACGGGGTAGTCGGTATCCCCCCCCGTAACTTAGAAGCATGTAACAAACCGACCAATAGGTGCGCGGCAGCCAGCTGCGTTGCGGTCAAGCACTTCTGTCTCCCCGGTCCGCAAGGATCGTTACCCGCCCACTCCACTACGAGGAGCCTAGTAACTGGCCAAGTGATTGCGGAGTTGCGTTCAGCCACAACCCCAGTGGTAGCTCTGGAAGATGGGGCTCGCACATCCCCCGTGGTAACACGGTTGCTTGCCCGCGTGTGCTTCCGGGTTCAGTCTCCGACTGTTCACTTCAACATCACGCAACCAGCCAAGAGCCGATTGTGCTGGAGTGGTCTTCCTCCGGGGCCGTGAATGCTGCTAATCCTAACCTCCGAGCGTGTGCGCACAATCCAGTGTTGCTACGTCGTAACGCGTAAGTTGGAGGCGGAACAGACTACTTTCGGCACCCCGTGTTTCCTTTATTTTATTCTTATTTTATGGTGACAATTGCAGAGATTTGTGATATTGCGACTTTACCGTTAAACATAGCACTGCATTACCTGGTTGCATTCCACAAAACTTCAGAGATTCCTAGTTCCTACATTGACCTACTTGTTTATTTGAATCTTAAATACAAACTTGAGCAAGTGAA
B7: Human enterovirus 109 (nucleic acid, listed as Enterovirus sp.)
DNA: TTTAAAACAGCCTGGGGGTTGTTCCCACCCCCAGGGCCCACTGGGCGTTAGTACTCTGGTATCGCGGTACCTTAGTATGCCTGTTTTATGTCTCCTTTCCCCCGCAACTTTAGAAGTAATCAAGTTATGGCTCAACAGTCGCCACACCCCCAGTGTGGTTCCGAGCAAGCACTTCTGTTCCCCGGTTGCGTCTTATATGCTGTGTGAACGGCAGAAAGGGACAATATCGTTATCCGCTCAACTACTACGGGAAGCCTAGTACCACCATGGATTGACCTGAAAGTTGCGTTCAGCGCACCCCCAGCGCAGCTCAGGCCGATGAGGCTCCGAATACCCCACGGGCGACCGTGTCGGAGCCTGCGTTGGCGGCCTGCCCACGTTGCAAAACGTGGGACGCTCATTTCATGACATGGTGCGAAGAGCCTACTGTGCTAGTTGAGAGTCCTCCGGCCCCTGAATGTGGATAATCCTAACCACTGAACCTACGGGCGCAAACCAGCGTCTGGTAGGCCGTAACGCGCAAGTCGGTGGCGGAACCAACTACTTTGGGTGTCCGTGTTTCCTTTTATCTTTTTGAATGTTTATGGTGACAATTGTTGTGTACAGTTGTTACCATAGTTTGCATTCAGAAATAAACCTAACACTTTCCAATTATTTGTTACA
B8: Picornavirales sp. isolate RtMruf-Pico V (nucleic acid)
DNA: TTTGCTCAGCGTAACTTCTCCGGGTTACGTGGAGACCAAAAGGCTACGGAGACTCGGGCTACGGCCCTGGAGCACCTAGGTGCTCCTAAAGACGTTAGAAGTTGTACAAACTCGCCCAATAGGGCCCCCCAACCAGGGGGGTAGCGGGCAAGCACTTCTGTTTCCCCGGTATGATCTCATAGGCTGTACCCACGGCTGAAAGAGAGATTATCGTTACCCGCCTCACTACTTCGAGAAGCCCAGTAATGGTTCATGAAGTTGATCTCGTTGACCCGGTGTTTCCCCCACACCAGAAACCTGTGATGGGGGTGGTCATCCCGGTCATGGCGACATGACGGACCTCCCCGCGCCGGCACAGGGCCTCTTCGGAGGACGAGTGACATGGATTCAACCGTGAAGAGCCTATTGAGCTAGTGTTGATTCCTCCGCCCCCGTGAATGCGGCTAATCCCAACTCCGGAGCAGGCGGGCCCAAACCAGGGTCTGGCCTGTCGTAACGCGAAAGTCTGGAGCGGAACCGACTACTTTCGGGAAGGCGTGTTTCCTTTTGTTCCTTTTATCAAGTTTTATGGTGACAACTCCTGGTAGACGTTTTATTGCGTTTATTGAGAGATTTCCAACAATTGAACAGACTAGAACCACTTGTTTTATCAAACCCTCACAGAATAAGATAACA
modifications: lipid formulation; source: /note="Description of Unknown: Picornavirales sp. isolate RtMruf-PicoV sequence"

The molecules below were run on HEK293 cells. Settings: circular RNA encoding Gluc with the listed IRES (UTR truncated to 675 nt) transfected into HEK293 cells; supernatant after 24 hours.
Assay type: cell-based, human
B1 was tested, and the “Expression (luminescence from secreted Gluc protein)” value (“Expression” below) was 5.49E+05.
B2 was tested, and the “Expression” value was 1.69E+05.
For B3, the “Expression” value was 4.37E+05.
In the case of B4, the “Expression” value is reported as 2.60E+05.
For B5, the “Expression” value was 1.90E+08.
B6 was tested, and the “Expression” value was 6.19E+06.
In the case of B7, the “Expression” value is reported as 4.92E+05.
In the case of B8, the “Expression” value is reported as 2.26E+08.
